Measured values taken from PMC5123862.

Key:
[1] = target: Monoubiquitinated PCNA ((Ub)3-PCNA): a single ubiquitin moiety on K164 of each monomer within a homotrimeric clamp ring (human) (UniProt P12004)
[2] = target: Wild-type PCNA (human) (human) (UniProt P12004)
Chain of Wild-type PCNA (human) (human) (P12004 whole entry): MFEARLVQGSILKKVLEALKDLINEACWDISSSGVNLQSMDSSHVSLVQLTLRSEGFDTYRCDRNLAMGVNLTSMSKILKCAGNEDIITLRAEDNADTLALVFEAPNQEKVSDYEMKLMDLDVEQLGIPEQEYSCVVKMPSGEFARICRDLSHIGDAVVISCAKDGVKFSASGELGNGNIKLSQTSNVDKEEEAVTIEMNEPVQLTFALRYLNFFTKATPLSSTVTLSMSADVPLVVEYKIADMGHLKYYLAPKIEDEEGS

B1: Pol η (human DNA polymerase eta, full length, wild type, unlabeled) (enzyme)
chain: MATGQDRVVALVDMDCFFVQVEQRQNPHLRNKPCAVVQYKSWKGGGIIAVSYEARAFGVTRSMWADDAKKLCPDLLLAQVRESRGKANLTKYREASVEVMEIMSRFAVIERASIDEAYVDLTSAVQERLQKLQGQPISADLLPSTYIEGLPQGPTTAEETVQKEGMRKQGLFQWLDSLQIDNLTSPDLQLTVGAVIVEEMRAAIERETGFQCSAGISHNKVLAKLACGLNKPNRQTLVSHGSVPQLFSQMPIRKIRSLGGKLGASVIEILGIEYMGELTQFTESQLQSHFGEKNGSWLYAMCRGIEHDPVKPRQLPKTIGCSKNFPGKTALATREQVQWWLLQLAQELEERLTKDRNDNDRVATQLVVSIRVQGDKRLSSLRRCCALTRYDAHKMSHDAFTVIKNCNTSGIQTEWSPPLTMLFLCATKFSASAPSSSTDITSFLSSDPSSLPKVPVTSSEAKTQGSGPAVTATKKATTSLESFFQKAAERQKVKEASLSSLTAPTQAPMSNSPSKPSLPFQTSQSTGTEPFFKQKSLLLKQKQLNNSSVSSPQQNPWSNCKALPNSLPTEYPGCVPVCEGVSKLEESSKATPAEMDLAHNSQSMHASSASKSVLEVTQKATPNPSLLAAEDQVPCEKCGSLVPVWDMPEHMDYHFALELQKSFLQPHSSNPQVVSAVSHQGKRNPKSPLACTNKRPRPEGMQTLESFFKPLTH
**Q.** Which abundance of the pol η TLS complex (P2, probability of insertion at i = 2) on undamaged TT P/T DNA: increase in the presence of (Ub)3-PCNA [1] does the source give for B1 here?
**A.** 2.75 fold

**Q.** What about the abundance of the pol η TLS complex (P2, probability of insertion at i = 2) on undamaged TT P/T DNA: increase in the presence of PCNA [2] of the same binder?
**A.** 2.53 fold

**Q.** What about the primer extension by pol η on the undamaged TT P/T DNA substrate under single turnover conditions: stimulation in the presence of PCNA against pol η alone [2] of the same binder?
**A.** 2.02 fold
